Laboratory results taken from the supplement of paper PMC10724198.
± gives the standard deviation of the averaged measurements.

System: Saccharomyces cerevisiae
Assay: protein stability index of tFT-peptide fusion (C-terminal peptide) (PSI (0-1 scale)); higher = more stable (slower turnover)
Details: genetic background: wild type; temperature: 30 C
Protocol: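 Multiplexed protein stability (MPS) profiling in S. cerevisiae. Random 12-aa peptides (tFT-X12 library) are fused to the C-terminus of a sfGFP-mCherry tandem fluorescent timer, after mCherry and a GGGS linker. Cells are FACS-sorted into 8 mCherry/sfGFP bins and deep-sequenced. The protein stability index (PSI) is the read-weighted bin average, scaled from 0 (unstable) to 1 (stable). Only peptides with >10 reads are reported; cells were grown at 30 °C in SC-His with glucose.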
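Note: PSI is a weighted mean of sequencing reads over stability bins, variants kept only with over 10 reads, mCherry proximal and sfGFP distal, peptide attached via GGGS linker.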

| Sequence | protein stability index |
| --- | --- |
| VGGWWAREVVEL | 0.753 ± 0.0085 |
| APLPASPPIPSS | 0.662 ± 0.12 |
| GIEAKPLEGKTQ | 0.7026 ± 0.0018 |
| YKPLKNKDEEMD | 0.6127 ± 0.00088 |
| LLWNFNLCHCEE | 0.701 ± 0.011 |
| KQWGTHSSWLEV | 0.701 ± 0.076 |
| CSNGRKFKKDDA | 0.682 ± 0.059 |
| PAPCPSPPAPAV | 0.708 ± 0.029 |
| PLLHDSHAIIPH | 0.716 ± 0.079 |
| FCYLCARMPYRS | 0.662 ± 0.13 |
| CGTYPTFCGLGV | 0.68 ± 0.068 |
| GLRLFAPRWPQA | 0.713 ± 0.058 |
| PPPRPGLPAPVP | 0.683 ± 0.05 |
| KRKRSERRRGKP | 0.693 ± 0.015 |
| FVSLEVLFISSL | 0.5609 ± 0.0016 |
| RRDELINVVKRT | 0.717 ± 0.072 |
| PSPFDTPPSSGQ | 0.722 ± 0.026 |
| SRRRRGRGEWFG | 0.722 ± 0.019 |
| QVLFTPLLNVTK | 0.754 ± 0.05 |
| FVVLALKESFSV | 0.605 ± 0.057 |
| LLFGMRPMLFSF | 0.576 ± 0.038 |
| YPPLTNNQINES | 0.69 ± 0.015 |
| LLAHLVIWAPSR | 0.634 ± 0.091 |
| KILAVKIRRLYL | 0.532 ± 0.018 |
| VCGPCVESLETR | 0.689 ± 0.059 |

| Sequence | protein stability index |
| --- | --- |
| PPALPPTRPPVS | 0.696 ± 0.047 |
| LKAWQRRWEGVR | 0.752 ± 0.026 |
| ICAPSPSPAFTF | 0.689 ± 0.0086 |
| PRSCPPFLPSLP | 0.727 ± 0.0099 |
| KDANACSCDATS | 0.6774 ± 0.0026 |
| LHPPAPRSPPPR | 0.639 ± 0.041 |
| SVLRGLCFDGYR | 0.7252 ± 0.0064 |
| YCRVRYKKSVLR | 0.694 ± 0.015 |
| KKKVEIKCRKRQ | 0.667 ± 0.0067 |
| PPSPHPSLPPPR | 0.668 ± 0.024 |
| GRGEKKREVDGG | 0.69 ± 0.065 |
| IKRIDQYEKQNK | 0.659 ± 0.07 |
| RWGVRGAIHSDL | 0.6841 ± 0.0065 |
| LGFSCHGRPPCS | 0.699 ± 0.085 |
| PGLCGGRRCVAL | 0.638 ± 0.073 |
| GGWFLLTRLGNW | 0.684 ± 0.035 |
| CGLCDISFDLVM | 0.626 ± 0.027 |
| RARVVRRWDTCG | 0.697 ± 0.086 |
| SPVFYYCPGYVD | 0.702 ± 0.05 |
| IRIKKGMETGKL | 0.69 ± 0.0084 |
| PSIMLSSLPPPP | 0.696 ± 0.065 |
| LGSAAVPGLCRL | 0.853 ± 0.0092 |
| PVDGGAGPEVKG | 0.641 ± 0.1 |
| EGWRWEGGVWEG | 0.676 ± 0.022 |
| SFTFSFWRFSPR | 0.676 ± 0.019 |

| Sequence | protein stability index |
| --- | --- |
| WAVLLQGSRDLW | 0.788 ± 0.016 |
| KPCGRAEERRSG | 0.674 ± 0.035 |
| LRSLNIVGTTAL | 0.66 ± 0.043 |
| KSPIPMRAPGNS | 0.633 ± 0.053 |
| IRVGVESGSRGR | 0.728 ± 0.22 |
| CRHPYTSTTRLA | 0.68 ± 0.025 |
| SHGEDTACNWGL | 0.714 ± 0.018 |
| PHLPPLLTTTPS | 0.61 ± 0.023 |
| GVAAGPAVRVLT | 0.669 ± 0.032 |
| SRCYKETGKVRE | 0.736 ± 0.0071 |
| VSRDVMYLGLGG | 0.721 ± 0.18 |
| QKTSPWRQRGRL | 0.778 ± 0.047 |
| GFIDGSTVRTCL | 0.64 ± 0.054 |
| RKEESKKEKNKI | 0.65 ± 0.11 |
| QGSWLRSVNLEY | 0.617 ± 0.092 |
| GFGWYVPESWSS | 0.616 ± 0.043 |
| SFVVAVALGRLR | 0.5734 ± 0.003 |
| VEHQVNMGDGEM | 0.63525 ± 3.1e-05 |
| EFMRHAFTPLPT | 0.733 ± 0.041 |
| TLSFPFRPLRLA | 0.48 ± 0.033 |
| PFSSVATFLSRL | 0.854 ± 0.17 |
| RLLLSRCSFLPT | 0.663 ± 0.03 |
| WVTQHAMEVGRI | 0.712 ± 0.084 |
| DRTITPSSVISL | 0.705 ± 0.047 |
| PLAPLLSPPAFP | 0.808 ± 0.12 |

| Sequence | protein stability index |
| --- | --- |
| LVCRYLGLRCSD | 0.597 ± 0.035 |
| RYKCSQWHNGLT | 0.767 ± 0.048 |
| SPPRSRPPPSLQ | 0.679 ± 0.015 |
| VGICWLTEPVLY | 0.731 ± 0.089 |
| SPPLPSAPPPPR | 0.664 ± 0.027 |
| WFDCGSACFGYL | 0.782 ± 0.056 |
| PSRASGPYPRLS | 0.701 ± 0.019 |
| GFLGVDLVYVVH | 0.567 ± 0.033 |
| LPRVPCRLAPPP | 0.689 ± 0.055 |
| VVPYRCQRLGDG | 0.686 ± 0.061 |
| GGGWDWWFGVPG | 0.792 ± 0.13 |
| WSGGWAGGMLNE | 0.641 ± 0.027 |
| PQIVRSFLLFPP | 0.69 ± 0.0076 |
| LRHHARSYLPRL | 0.805 ± 0.18 |
| INRDKLNRRKKL | 0.687 ± 0.038 |
| AAPSPRPTPLPS | 0.698 ± 0.025 |
| SRYVSGGRKRKV | 0.636 ± 0.045 |
| LSRGLVVSFVLK | 0.662 ± 0.014 |
| DVLGCHRCLGFC | 0.699 ± 0.021 |
| IRVLDVWRSGHL | 0.737 ± 0.0079 |
| ALAQQSPLPTRP | 0.703 ± 0.011 |
| MAEAVVLDPDMV | 0.6831 ± 0.0055 |
| PRVPLPPPHPLH | 0.728 ± 0.073 |
